Results on five molecules are retold here after patent publication US20230192853A1 (Genentech, published 2023).

Assay [1] deals with T1, huCD8a-Fc (C-terminal hFc-tagged human CD8α receptor) (human, UniProt P01732 22-182).
T1 construct: the whole entry is named; also called CD8α-Fc; CD8α-hFc; not shown: human Fc tag at the C-terminus
The experiment in a line: SPR.

Assay [2] concerns the target T2, one-armed single chain huCD8α/huCD8β-Fc (human, UniProt P10966 22-170).
T2 construct: the whole entry is named; also called Human CD8αβ; CD8αβ-Fc; not shown: linker between CD8α and CD8β; not described; one polypeptide chain of an Fc (captured with an anti-HuIgG1 Fc kit); second Fc chain without fusion (one-armed format)
The experiment in a line: affinity measurement, method not named in the sentence (SPR per paragraph 284).

Assay [3] concerns the target T3, rhesus monkey CD8 in CD8-rich tissues (in vivo) (rhesus monkey, UniProt P01732 23-235 (human entry)).
T3 construct: the target was seen by PET in lymph nodes, thymus and spleen; also called rhesus CD8
The experiment in a line: PET imaging in rhesus monkey. The procedure:
Imaging experiments were performed with ¹⁸F-anti-CD8 VHH in a rhesus monkey to determine whether uptake could be detected in tissues that are normally CD8-rich. A rhesus monkey (2.5 kg) was injected with 64 micrograms ¹⁸F-anti-CD8 VHH containing a 1.2 mCi radiation dose.

The target of assay [4] is T4, human CD8 on cells (HPBALL cells, TALL1 cells, CD8+ T cells of human whole blood and PBMCs) (human, UniProt P01732 22-234).
T4 construct: also called huCD8
T4 sequence (P01732 22-234 limits assumed): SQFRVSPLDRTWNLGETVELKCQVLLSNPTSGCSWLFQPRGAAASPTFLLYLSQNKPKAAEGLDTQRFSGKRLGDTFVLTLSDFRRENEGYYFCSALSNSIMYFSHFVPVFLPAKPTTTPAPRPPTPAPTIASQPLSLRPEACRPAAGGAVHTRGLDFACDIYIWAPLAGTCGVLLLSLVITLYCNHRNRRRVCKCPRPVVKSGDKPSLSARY
The experiment in a line: PET MIP of TALL1 tumor xenografted mice.

The target in assay [5] is T2, one-armed single chain huCD8α/huCD8β-Fc. The experiment in a line: SPR, Biacore T200, 37°C, CD8αβ-Fc captured, VHH as analyte. The procedure:
(§1) The binding affinity for each VHH variant to both human (a one-armed single chain huCD8α/huCD8β-Fc) and cynomolgus monkey (a one-armed single chain cynoCD8α/cynoCD8β-Fc) were determined by Surface Plasmon Resonance (SPR). SPR experiments were carried out on the Biacore T200 (GE Healthcare) at 37° C. using HBS-P+ (GE Healthcare) running buffer. 1.5 μg/mL of CD8αβ-Fc was captured using an anti-HuIgG1 Fc capture kit (GE Healthcare) and monomeric VHHs were added as the analyte in solution at a flow rate of 100 μL/min. The VHH was titrated using a dilution series from 100-0 nM. Sensorgrams were fit to a 1:1 Langmuir model to identify kinetic parameters, including KD, kₒₙ and koff.
(In general: Surface plasmon resonance follows binding to a sensor surface in real time, without labels.)

In assay [6] the target is T5, one-armed single chain cynoCD8α/cynoCD8β-Fc (cynomolgus monkey).
T5 construct: the whole entry is named; also called Cyno CD8αβ; CD8αβ-Fc; not shown: linker between CD8α and CD8β; not described; one polypeptide chain of an Fc (captured with an anti-HuIgG1 Fc kit); second Fc chain without fusion (one-armed format)
T5 sequence (P01732 other isoform, or with tags, fused parts or gaps): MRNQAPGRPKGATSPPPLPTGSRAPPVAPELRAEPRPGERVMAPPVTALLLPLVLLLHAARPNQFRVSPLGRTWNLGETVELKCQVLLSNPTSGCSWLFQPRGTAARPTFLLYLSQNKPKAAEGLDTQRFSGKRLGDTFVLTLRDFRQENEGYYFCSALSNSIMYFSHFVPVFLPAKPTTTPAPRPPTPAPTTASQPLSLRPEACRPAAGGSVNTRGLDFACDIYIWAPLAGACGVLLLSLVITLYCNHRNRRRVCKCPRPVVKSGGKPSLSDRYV
The description is as above. The procedure: as §1

T2 sequence (P10966 other isoform, or with tags, fused parts or gaps): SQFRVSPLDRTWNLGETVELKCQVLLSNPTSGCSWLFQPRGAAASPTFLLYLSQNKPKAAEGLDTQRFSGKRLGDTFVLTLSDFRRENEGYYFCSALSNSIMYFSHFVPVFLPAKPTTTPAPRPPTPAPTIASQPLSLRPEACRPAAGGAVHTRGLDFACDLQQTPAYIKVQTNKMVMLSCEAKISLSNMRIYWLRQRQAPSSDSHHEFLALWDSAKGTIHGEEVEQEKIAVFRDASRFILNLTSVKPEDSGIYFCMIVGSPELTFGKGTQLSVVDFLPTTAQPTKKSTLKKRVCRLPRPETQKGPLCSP
T3 sequence (P01732 other isoform, or with tags, fused parts or gaps limits assumed): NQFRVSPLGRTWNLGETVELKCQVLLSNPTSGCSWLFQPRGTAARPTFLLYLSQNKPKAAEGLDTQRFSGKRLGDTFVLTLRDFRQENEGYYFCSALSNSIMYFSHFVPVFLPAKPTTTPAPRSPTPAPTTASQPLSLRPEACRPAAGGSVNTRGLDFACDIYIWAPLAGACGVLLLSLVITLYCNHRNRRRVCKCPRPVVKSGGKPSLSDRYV
T1 sequence (P01732 22-182 limits assumed): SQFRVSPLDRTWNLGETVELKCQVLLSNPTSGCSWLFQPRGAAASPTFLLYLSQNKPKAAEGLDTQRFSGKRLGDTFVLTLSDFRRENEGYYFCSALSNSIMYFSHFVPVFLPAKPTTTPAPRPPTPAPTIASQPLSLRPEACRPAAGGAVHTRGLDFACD

B1: 2C8 VHH (llama anti-CD8 VHH wt2C8) (VHH)
VHH: EVQLVESGGGLVQAGGSLRLSCAASGFTFDDYAIGWFRQAPGKGREGVLCIRIFDRHTYSADSVKGRFTISSDNAQNTVYLHMNSLKPEDTAVYYCAAGSFWACTRPEGAMDYWGKGTQVTVSS
notes: Monomeric VHH; VHHs were made both with a C-terminal His tag and tagless; also called 2C8.1-H; wild-type 2C8
For B1, the binding result in assay [1] is “binds”.

B2: 2C8 with the A99G and A100fD mutations (VHH, name in Kabat numbering)
VHH: EVQLVESGGGLVQAGGSLRLSCAASGFTFDDYAIGWFRQAPGKGREGVLCIRIFDRHTYSADSVKGRFTISSDNAQNTVYLHMNSLKPEDTAVYYCAAGSFWGCTRPEGDMDYWGKGTQVTVSS
Consider B2, for which the “fold improvement of affinity against the parental clone 2C8” value in assay [2] was about 10 fold.

B3: 18F-control VHH (18F-AlF-RESCA-modified 2C8v145) (VHH)
VHH: EVQLVESGGGLVQPGGSLRLSCAASGFTFDDYAIGWFRQAPGKGREGVACIRIFDRHTYYADSVKGRFTISSDNSKNTVYLQMNSLRAEDTATYYCAAGFFSGCTRPEGDMDYFGQGTLVQVQS
modifications: RESCA chelator (Formula (I)) carrying [18F]-aluminum fluoride; site not stated
In the case of B3, the binding result in assay [3] and in assay [4] was “no binding” in each case.

B4: 2C8v144 VHH (VHH)
VHH: EVQLVESGGGLVQPGGSLRLSCAASGFTFDDYAIGWFRQAPGKGREGVACIRIFDRHTYYADSVKGRFTISSDNSKNTVYLQMNSLRAEDTATYYCAAGSFWGCTRPEGDMDYFGQGTLVQVQS
notes: also called hu2C8v144
For B4, in assay [5], the Kd is 0.0497 nM, the koff was determined as 0.000845 s⁻¹ and the kon came out at 1.7e+07 M⁻¹ s⁻¹. In assay [6], this molecule gave a Kd of 0.137 nM, an off-rate constant (koff) of 0.0019 s⁻¹ and a kon of 1.39e+07 M⁻¹ s⁻¹.

B5: 2C8v142 VHH (VHH)
VHH: EVQLVESGGGLVQPGGSLRLSCAASGFTFDDYVIGWFRQAPGKGREGVACIRIFDRHTYYADSVKGRFTISSDNSKNTVYLQMNSLRAEDTATYYCAAGSFFGCTRPEGDMDYFGQGTLVQVQS
notes: also called hu2C8v142
In assay [5], B5 came in with a dissociation constant (Kd) of 0.132 nM, a koff of 0.00176 s⁻¹ and an association rate constant (kon) of 1.34e+07 M⁻¹ s⁻¹. In addition, in assay [6], the dissociation constant (Kd) worked out at 0.344 nM, the koff was found to be 0.0037 s⁻¹ and the on-rate (kon) is 1.09e+07 M⁻¹ s⁻¹.

The term Kd denotes the free concentration of one partner at which half of the binding sites on the other are occupied at equilibrium, for simple one-to-one binding. As usually defined, the koff is a measure of how fast the partners let go of each other. The term kon denotes the rate constant with which the complex forms.
